This is an account of results in publication PMC11079477 (iScience, 2024).

Usually stoichiometry N stands for a count of units in the complex or per binding partner.

Series [1] deals with the molecule itself. Briefly: reducing SDS-PAGE and immunoblot.
Series [2] deals with the molecule itself. The series is described as follows: non-reducing SDS-PAGE and Western blot. Background: In western blotting, separated proteins are transferred to a membrane and probed.
Series [3] deals with the molecule itself. Briefly: reducing SDS-PAGE and immunoblot of a membrane preparation.
Series [4] deals with the molecule itself.
Series [5] concerns the molecule itself. The series is described as follows: 4M urea SDS-PAGE.
Series [6] concerns the molecule itself. The series is described as follows: non-reducing SDS-PAGE.

Positions count from the first letter of the chain named. Names and notes keep the numbering of the source. Read-outs that look alike come from different tables or passages of the source.

B1: PfP2-HA of P. falciparum 3D7 P2-HA glmS transgenic parasites (natural protein, Plasmodium falciparum 3D7, UniProt O00806 1-112, looked up)
chain: MAMKYVAAYLMCVLGGNENPSTKEVKNVLGAVNADVEDEVLNNFIDSLKGKSCHELITDGLKKLQNIGGGVAAAPAGAAAVETAEAKKEDKKEEKKEEEEEEEDDLGFSLFG
For the protein B1, the “stoichiometry N” value in series [1] was found to be 4.

B2: PfP2C12A (Clone 1, C12A) (natural protein, Plasmodium falciparum 3D7, UniProt O00806 1-112, looked up)
chain: B1 chain with C12A
On to B2, for which the “stoichiometry N” value in series [2] turned out to be 2.

B3: PfP2 of wild type P. falciparum 3D7 parasites (natural protein, UniProt O00806 1-112, looked up)
chain: B1 chain
modifications: 11th methionine (Met11) oxidized in the parasite membrane preparation (ESI MS/MS)
Consider B3, for which the “stoichiometry N” value came out at 2 in series [3] and 4 in series [1].

B4: LAFS-induced alkylated rec. PfP2 tetramer (natural protein, Plasmodium falciparum 3D7, UniProt O00806 1-112, looked up)
chain: B1 chain
modifications: cysteines alkylated using iodoacetamide (IAA) after reduction with DTT
For B4, the “stoichiometry N” value in series [4] worked out at 4.

B5: LAFS-induced denaturation-resistant rec. PfP2 tetramer (natural protein, Plasmodium falciparum 3D7, UniProt O00806 1-112, looked up)
chain: B1 chain
modifications: 11th methionine (Met11) oxidized; Met11 S-O-S Met11 linkages between chains as the paper proposes
For B5, in series [5], the “stoichiometry N” value was 4.

B6: 6x His tag recombinant PfP2 (P. falciparum 60S stalk ribosomal protein P2) (natural protein, Plasmodium falciparum 3D7, UniProt O00806 1-112, looked up)
chain: B1 chain
With B6, in series [6], the “stoichiometry N” value is 4.
